The text below walks through data of US20230295331A1 (PROMAB BIOTECHNOLOGIES, published 2023).

By Kd is commonly meant the concentration at which binding is half-saturated. Low readings indicate higher affinity, high ones lower affinity. By EC50 (read off the curve) is commonly meant the concentration needed to bring the measured effect to its halfway point.

Several values for one entry are separate records, joined by “and”; a condition that tells them apart may be missing. Equal entries are not always repeated.

Experiment [1] deals with T1, CS1 protein (SLAM family member 7, CD319) on cells (human, UniProt Q9NQ25 23-335).
T1 construct: The cells are CHO-CS1 (bought from BPS Bioscience), Hela-CS1 (transduced with CS1 cDNA lentivirus) and the myeloma lines, which carry CS1 of their own; also called CHO-CS1 cells; Hela-CS1 cells
T1 sequence: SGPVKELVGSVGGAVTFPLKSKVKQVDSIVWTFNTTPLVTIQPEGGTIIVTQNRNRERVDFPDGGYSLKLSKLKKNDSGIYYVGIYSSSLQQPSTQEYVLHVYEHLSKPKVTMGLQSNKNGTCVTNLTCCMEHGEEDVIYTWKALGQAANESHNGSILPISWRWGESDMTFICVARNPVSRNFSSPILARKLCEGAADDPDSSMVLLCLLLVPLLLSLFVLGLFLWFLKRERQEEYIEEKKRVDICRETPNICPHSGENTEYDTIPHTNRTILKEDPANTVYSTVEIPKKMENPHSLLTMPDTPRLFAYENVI
Put plainly: binding titration by flow cytometry on CHO-CS1 cells. (In general: In flow cytometry, cells or beads pass a laser one at a time.)

Experiment [2] has as its target T1, CS1 protein (SLAM family member 7, …). Put plainly: flow cytometry binding titration on CHO-CS1 cells.

B1: mouse monoclonal anti-human CS1 antibody, clone 7A8D5 (antibody, V domains shown)
VH: VQLQQSGPEVVRPGVSVKISCKGSGYTFTDYAIHWVKQSHAKSLEWIGVINTYNGNTNYNQKFKGKATMTVDKSSSTAYMELARLTSEDSAIYYCTRTGYYYGPSHYFDYWGQGTTLTVSS
VL: DIVLTQSPASLTVSLGQRATMSCRASKSVSTSGYSYVHWYQQKPGQPPKLLIYLASNLESGVPARFSASGSGTDFTLNIHPVEEEDAATYYCQHSRELPWTFGGGTKLEIKR
notes: Mouse monoclonal antibody from a hybridoma, purified on a Protein G column; also called anti-CS1 antibody clone 7A8D5; CS1 clone 7A8D5
For the molecule B1, the Kd in experiment [1] was 5.3 nM and 0.8 µg/mL. Further, in experiment [2], the “EC50 (read off the curve)” value was about 0.7 µg/mL.
